Test results as given in US20210371536A1 (SEOUL NATIONAL UNIVERSITY R AND DB FOUNDATION, published 2021).

Molecular target: mPDGFR-β on NIH3T3 cells (mouse, UniProt P05622 32-1098)
Experiment: cell-based or functional assay

mPDGFR-β on NIH3T3 cells, sequence (P05622 32-1098): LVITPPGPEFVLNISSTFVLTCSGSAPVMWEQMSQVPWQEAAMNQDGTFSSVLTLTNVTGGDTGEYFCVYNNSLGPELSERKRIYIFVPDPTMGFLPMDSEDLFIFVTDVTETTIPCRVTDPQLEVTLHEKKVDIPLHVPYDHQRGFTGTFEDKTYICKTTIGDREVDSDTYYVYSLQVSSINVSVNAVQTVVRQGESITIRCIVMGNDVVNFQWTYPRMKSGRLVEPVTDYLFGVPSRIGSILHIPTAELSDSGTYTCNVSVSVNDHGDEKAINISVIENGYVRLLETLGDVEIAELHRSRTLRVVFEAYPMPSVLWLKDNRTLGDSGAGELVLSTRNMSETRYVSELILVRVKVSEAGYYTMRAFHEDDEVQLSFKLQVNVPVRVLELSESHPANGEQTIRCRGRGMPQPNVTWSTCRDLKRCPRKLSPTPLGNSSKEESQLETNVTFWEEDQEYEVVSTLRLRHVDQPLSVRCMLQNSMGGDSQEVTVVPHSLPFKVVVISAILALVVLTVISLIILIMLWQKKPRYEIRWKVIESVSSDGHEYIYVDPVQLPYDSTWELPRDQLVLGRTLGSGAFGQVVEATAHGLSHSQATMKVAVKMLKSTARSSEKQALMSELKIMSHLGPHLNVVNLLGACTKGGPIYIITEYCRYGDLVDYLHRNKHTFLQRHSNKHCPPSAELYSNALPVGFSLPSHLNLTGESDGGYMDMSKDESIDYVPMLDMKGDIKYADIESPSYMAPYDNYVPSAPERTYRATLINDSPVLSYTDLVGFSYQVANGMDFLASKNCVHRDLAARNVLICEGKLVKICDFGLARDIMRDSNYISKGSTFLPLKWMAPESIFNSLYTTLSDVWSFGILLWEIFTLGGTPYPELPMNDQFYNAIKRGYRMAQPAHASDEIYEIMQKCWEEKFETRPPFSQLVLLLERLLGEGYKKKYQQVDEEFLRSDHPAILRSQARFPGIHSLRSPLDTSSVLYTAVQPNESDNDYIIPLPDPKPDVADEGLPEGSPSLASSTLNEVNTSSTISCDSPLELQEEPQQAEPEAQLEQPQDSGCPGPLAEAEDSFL

B1: PRb-CC03 x cotinine scFv-Cκ-scFv fusion protein (bispecific antibody) (bispecific antibody)
chain: LTQPSSVSANPGETVKITCSGGTYNYGWYQQKSPGSAPVTVIYWNDKRPSDIPSRFSGSKSGSTGTLTITGVQAEDEAVYYCGSSDSSGLIFGAGTTLTVLGQSSRSSGGGGSSGGGGSAVTLDESGGGLQTPGGTLSLVCKASGFTFSSYAMGWVRQAPGKGLEWVAGIDTAGGTAYGPAVKGRATISRDNGQSTVRLQLNNLRAEDTATYYCTRSSYIDTWGHGTEVIVSSTSGGGGSGGGGSGGGGSRTVAAPSVFIFPPSDEQLKSGTASVVCLLNNFYPREAKVQWKVDNALQSGNSQESVTEQDSKDSTYSLSSTLTLSKADYEKHKVYACEVTHQGLSLPVTKSFNRGESGGGGSGGGGSGGGGSDIQMTQSPSSLSASVGDRVTITCQSSQSPYSNEWLSWYQQKPGKAPKLLIYRISTLASGVPSRFSGSRSGTDFTLTISSLQPEDFATYYCAGGYNFGLFLFGQGTKVEIKGQSSRSSGGGGSSGGGGSEVQLVESGGGLVQPGGSLRLSCAASGHLRRRDWMNWVRQAPGKGLEWVAAIGRSGDTYYATWAKGRFTISADTSKNTAYLQMNSLRAEDTAVYYCSRIPYFGWNNGDIWGQGTLVTVSS
- IC50 (nM) of relative cell viability (cellular ATP), NIH3T3 cells, bispecific complexed with cot-duo, with mPDGF-BB: 20.7 nM
- IC50 (nM) of relative cell viability (cellular ATP), NIH3T3 cells, bispecific complexed with cot-duo, without mPDGF-BB: 27.3 nM
- IC50 (nM) of relative cell viability (cellular ATP), NIH3T3 cells, bispecific complexed with cot-duo-cot, with mPDGF-BB: 50.2 nM
- IC50 (nM) of relative cell viability (cellular ATP), NIH3T3 cells, bispecific complexed with cot-duo-cot, without mPDGF-BB: 67.3 nM

B2: PRb-CC02 x cotinine scFv-Cκ-scFv fusion protein (bispecific antibody) (bispecific antibody)
chain: LTQPSSVSANPGETVKITCSGGGGSYGWYQQKSPGSAPVTVIYYNDKRPSDIPSRFSGSKSGSTGTLTITGVQAEDEAVYFCGSYNSSDSLFGAGTTLTVLGQSSRSSGGGGSSGGGGSAVTLDESGGGLQTPGGALSLVCKASGFTFSSYGMFWVRQAPGKGLEWVAGIDTGSGTNYGSAVKGRATISRDNGQSTVRLQLNNLRAEDTGTYFCTRGYAGTIDAWGHGTEVIVSSTSGGGGSGGGGSGGGGSRTVAAPSVFIFPPSDEQLKSGTASVVCLLNNFYPREAKVQWKVDNALQSGNSQESVTEQDSKDSTYSLSSTLTLSKADYEKHKVYACEVTHQGLSLPVTKSFNRGESGGGGSGGGGSGGGGSDIQMTQSPSSLSASVGDRVTITCQSSQSPYSNEWLSWYQQKPGKAPKLLIYRISTLASGVPSRFSGSRSGTDFTLTISSLQPEDFATYYCAGGYNFGLFLFGQGTKVEIKGQSSRSSGGGGSSGGGGSEVQLVESGGGLVQPGGSLRLSCAASGHLRRRDWMNWVRQAPGKGLEWVAAIGRSGDTYYATWAKGRFTISADTSKNTAYLQMNSLRAEDTAVYYCSRIPYFGWNNGDIWGQGTLVTVSS
- IC50 (nM) of relative cell viability (cellular ATP), NIH3T3 cells, bispecific complexed with cot-duo, with mPDGF-BB: 20.6 nM
- IC50 (nM) of relative cell viability (cellular ATP), NIH3T3 cells, bispecific complexed with cot-duo, without mPDGF-BB: 20.1 nM
- IC50 (nM) of relative cell viability (cellular ATP), NIH3T3 cells, bispecific complexed with cot-duo-cot, with mPDGF-BB: 89 nM
- IC50 (nM) of relative cell viability (cellular ATP), NIH3T3 cells, bispecific complexed with cot-duo-cot, without mPDGF-BB: 125 nM

B3: PRb-CN01 x cotinine scFv-Cκ-scFv fusion protein (bispecific antibody) (bispecific antibody)
chain: LTQPSSVSANPGETVKITCSGGSGSYGWFQQKSPGSAPVTVIYSNNQRPSDIPSRFSGSKSGSTNTLTITGVQAEDEAIYYCGTRDSSYVGIFGAGTTLTVLGQSSRSSGGGGSSGGGGSAVTLDESGGGLQTPGGALSLVCKASGFTFSDRAMHWVRQAPGKGLEWVGLITNTGGSTNYGAAVKGRATISRDNGQSTVRLQLNNLRAEDTGTYYCTRGVGSWAHGGRIDAWGHGTEVIVSSGGGGSGGGGSGGGGSRTVAAPSVFIFPPSDEQLKSGTASVVCLLNNFYPREAKVQWKVDNALQSGNSQESVTEQDSKDSTYSLSSTLTLSKADYEKHKVYACEVTHQGLSLPVTKSFNRGESGGGGSGGGGSGGGGSDIQMTQSPSSLSASVGDRVTITCQSSQSPYSNEWLSWYQQKPGKAPKLLIYRISTLASGVPSRFSGSRSGTDFTLTISSLQPEDFATYYCAGGYNFGLFLFGQGTKVEIKGQSSRSSGGGGSSGGGGSEVQLVESGGGLVQPGGSLRLSCAASGHLRRRDWMNWVRQAPGKGLEWVAAIGRSGDTYYATWAKGRFTISADTSKNTAYLQMNSLRAEDTAVYYCSRIPYFGWNNGDIWGQGTLVTVSS
- IC50 (nM) of relative cell viability (cellular ATP), NIH3T3 cells, bispecific complexed with cot-duo, with mPDGF-BB: 9.7 nM
- IC50 (nM) of relative cell viability (cellular ATP), NIH3T3 cells, bispecific complexed with cot-duo, without mPDGF-BB: 8.3 nM
- IC50 (nM) of relative cell viability (cellular ATP), NIH3T3 cells, bispecific complexed with cot-duo-cot, with mPDGF-BB: 30.5 nM
- IC50 (nM) of relative cell viability (cellular ATP), NIH3T3 cells, bispecific complexed with cot-duo-cot, without mPDGF-BB: 20.1 nM

B4: PRb-CC01 x cotinine scFv-Cκ-scFv fusion protein (bispecific antibody) (bispecific antibody)
chain: LTQPSSVSANLGGTVKITCSGGGSYYGWYQQKSPGSAPVTLIYYNDKRPSDIPSRFSGSKSGSTGTLTITGVQAEDEAVYFCGAWDNSAGYAGFGAGTTLTVLGQSSRSSGGGGSSGGGGSAVTLDESGGGLQTPGGALSLVCKGSGFTFSSYNMGWVRQAPGKGLEFVAGISAADNSTAYGAAVDGRATISRDNGQSTVRLQLNNLRAEDTATYFCIRGGGSIDAWGHGTEVIVSSGGGGSGGGGSGGGGSRTVAAPSVFIFPPSDEQLKSGTASVVCLLNNFYPREAKVQWKVDNALQSGNSQESVTEQDSKDSTYSLSSTLTLSKADYEKHKVYACEVTHQGLSLPVTKSFNRGESGGGGSGGGGSGGGGSDIQMTQSPSSLSASVGDRVTITCQSSQSPYSNEWLSWYQQKPGKAPKLLIYRISTLASGVPSRFSGSRSGTDFTLTISSLQPEDFATYYCAGGYNFGLFLFGQGTKVEIKGQSSRSSGGGGSSGGGGSEVQLVESGGGLVQPGGSLRLSCAASGHLRRRDWMNWVRQAPGKGLEWVAAIGRSGDTYYATWAKGRFTISADTSKNTAYLQMNSLRAEDTAVYYCSRIPYFGWNNGDIWGQGTLVTVSS
- IC50 (nM) of relative cell viability (cellular ATP), NIH3T3 cells, bispecific complexed with cot-duo, with mPDGF-BB: 27.1 nM
- IC50 (nM) of relative cell viability (cellular ATP), NIH3T3 cells, bispecific complexed with cot-duo, without mPDGF-BB: 25 nM
- IC50 (nM) of relative cell viability (cellular ATP), NIH3T3 cells, bispecific complexed with cot-duo-cot, with mPDGF-BB: 67.2 nM
- IC50 (nM) of relative cell viability (cellular ATP), NIH3T3 cells, bispecific complexed with cot-duo-cot, without mPDGF-BB: 87.6 nM
